This is an account of results in patent US20160120951A1 (ZEALAND PHARMA A S, published 2016).

Numbered stars: 1 amine (or outer) side, 2 acyl side, 3 side chain; on linkers, the order of the positions; unused ones are H or OH. Bridge positions count the residues as written; N and C are the ends. Square brackets hold non-standard residues; d marks the D form. Side chains are listed from the residue outwards. Ends that are not written are not given here. * marks the point of attachment. γGlu = O=C(O)[C@H](CCC(=O)[*:2])N[*:1]; Palmitoyl = CCCCCCCCCCCCCCCC(=O)*; Aib = CC(C)(N)C(=O)O

The chains are these.
B1: Compound 15 (peptide)
peptide: HXQGTFTSDYSKYLDSKAAHDFVEWLLSA
modifications: Aib at position 2; K(Hexadecanoyl-[3-Aminopropanoyl]) at position 17; C-terminal amide (NH2)
B2: Compound 2 (peptide)
peptide: HSQGTFTSDYSKYLDK([γGlu-Palmitoyl])KAAHDFVEWLLRA-NH2
modifications: N-terminus assumed
SMILES: CCCCCCCCCCCCCCCC(=O)N[C@@H](CCC(=O)NCCCC[C@H](NC(=O)[C@H](CC(=O)O)NC(=O)[C@H](CC(C)C)NC(=O)[C@H](Cc1ccc(O)cc1)NC(=O)[C@H](CCCCN)NC(=O)[C@H](CO)NC(=O)[C@H](Cc1ccc(O)cc1)NC(=O)[C@H](CC(=O)O)NC(=O)[C@H](CO)NC(=O)[C@@H](NC(=O)[C@H](Cc1ccccc1)NC(=O)[C@@H](NC(=O)CNC(=O)[C@H](CCC(N)=O)NC(=O)[C@H](CO)NC(=O)[C@@H](N)Cc1c[nH]cn1)[C@@H](C)O)[C@@H](C)O)C(=O)N[C@@H](CCCCN)C(=O)N[C@@H](C)C(=O)N[C@@H](C)C(=O)N[C@@H](Cc1c[nH]cn1)C(=O)N[C@@H](CC(=O)O)C(=O)N[C@@H](Cc1ccccc1)C(=O)N[C@H](C(=O)N[C@@H](CCC(=O)O)C(=O)N[C@@H](Cc1c[nH]c2ccccc12)C(=O)N[C@@H](CC(C)C)C(=O)N[C@@H](CC(C)C)C(=O)N[C@@H](CCCNC(=N)N)C(=O)N[C@@H](C)C(N)=O)C(C)C)C(=O)O
B3: Compound 17 (peptide)
peptide: HXQGTFTSDYSKYLDSKAAHDFVEWLLSA
modifications: Aib at position 2; K(Hexadecanoyl-ε-Lys) at position 17; C-terminal amide (NH2)
B4: Compound 16 (peptide)
peptide: HXQGTFTSDYSKYLDSKAAHDFVEWLLSA
modifications: Aib at position 2; K(Hexadecanoyl-[8-Aminooctanoyl]) at position 17; C-terminal amide (NH2)
B5: Compound 3 (peptide)
peptide: H-HSQGTFTSDYSKYLDSK([γGlu-Palmitoyl])AAHDFVEWLLRA-NH2
SMILES: CCCCCCCCCCCCCCCC(=O)N[C@@H](CCC(=O)NCCCC[C@H](NC(=O)[C@H](CO)NC(=O)[C@H](CC(=O)O)NC(=O)[C@H](CC(C)C)NC(=O)[C@H](Cc1ccc(O)cc1)NC(=O)[C@H](CCCCN)NC(=O)[C@H](CO)NC(=O)[C@H](Cc1ccc(O)cc1)NC(=O)[C@H](CC(=O)O)NC(=O)[C@H](CO)NC(=O)[C@@H](NC(=O)[C@H](Cc1ccccc1)NC(=O)[C@@H](NC(=O)CNC(=O)[C@H](CCC(N)=O)NC(=O)[C@H](CO)NC(=O)[C@@H](N)Cc1c[nH]cn1)[C@@H](C)O)[C@@H](C)O)C(=O)N[C@@H](C)C(=O)N[C@@H](C)C(=O)N[C@@H](Cc1c[nH]cn1)C(=O)N[C@@H](CC(=O)O)C(=O)N[C@@H](Cc1ccccc1)C(=O)N[C@H](C(=O)N[C@@H](CCC(=O)O)C(=O)N[C@@H](Cc1c[nH]c2ccccc12)C(=O)N[C@@H](CC(C)C)C(=O)N[C@@H](CC(C)C)C(=O)N[C@@H](CCCNC(=N)N)C(=O)N[C@@H](C)C(N)=O)C(C)C)C(=O)O
B6: Compound 12 (peptide)
peptide: H-H[Aib]QGTFTSDYSKYLDSKAAHDFVEWLLK([γGlu-Palmitoyl])A-NH2
SMILES: CCCCCCCCCCCCCCCC(=O)N[C@@H](CCC(=O)NCCCC[C@H](NC(=O)[C@H](CC(C)C)NC(=O)[C@H](CC(C)C)NC(=O)[C@H](Cc1c[nH]c2ccccc12)NC(=O)[C@H](CCC(=O)O)NC(=O)[C@@H](NC(=O)[C@H](Cc1ccccc1)NC(=O)[C@H](CC(=O)O)NC(=O)[C@H](Cc1c[nH]cn1)NC(=O)[C@H](C)NC(=O)[C@H](C)NC(=O)[C@H](CCCCN)NC(=O)[C@H](CO)NC(=O)[C@H](CC(=O)O)NC(=O)[C@H](CC(C)C)NC(=O)[C@H](Cc1ccc(O)cc1)NC(=O)[C@H](CCCCN)NC(=O)[C@H](CO)NC(=O)[C@H](Cc1ccc(O)cc1)NC(=O)[C@H](CC(=O)O)NC(=O)[C@H](CO)NC(=O)[C@@H](NC(=O)[C@H](Cc1ccccc1)NC(=O)[C@@H](NC(=O)CNC(=O)[C@H](CCC(N)=O)NC(=O)C(C)(C)NC(=O)[C@@H](N)Cc1c[nH]cn1)[C@@H](C)O)[C@@H](C)O)C(C)C)C(=O)N[C@@H](C)C(N)=O)C(=O)O
B7: Compound 4 (peptide)
peptide: H-HSQGTFTSDYSKYLDSKAAK([γGlu-Palmitoyl])DFVEWLLRA-NH2
SMILES: CCCCCCCCCCCCCCCC(=O)N[C@@H](CCC(=O)NCCCC[C@H](NC(=O)[C@H](C)NC(=O)[C@H](C)NC(=O)[C@H](CCCCN)NC(=O)[C@H](CO)NC(=O)[C@H](CC(=O)O)NC(=O)[C@H](CC(C)C)NC(=O)[C@H](Cc1ccc(O)cc1)NC(=O)[C@H](CCCCN)NC(=O)[C@H](CO)NC(=O)[C@H](Cc1ccc(O)cc1)NC(=O)[C@H](CC(=O)O)NC(=O)[C@H](CO)NC(=O)[C@@H](NC(=O)[C@H](Cc1ccccc1)NC(=O)[C@@H](NC(=O)CNC(=O)[C@H](CCC(N)=O)NC(=O)[C@H](CO)NC(=O)[C@@H](N)Cc1c[nH]cn1)[C@@H](C)O)[C@@H](C)O)C(=O)N[C@@H](CC(=O)O)C(=O)N[C@@H](Cc1ccccc1)C(=O)N[C@H](C(=O)N[C@@H](CCC(=O)O)C(=O)N[C@@H](Cc1c[nH]c2ccccc12)C(=O)N[C@@H](CC(C)C)C(=O)N[C@@H](CC(C)C)C(=O)N[C@@H](CCCNC(=N)N)C(=O)N[C@@H](C)C(N)=O)C(C)C)C(=O)O
B8: Compound 14 (peptide)
peptide: HXQGTFTSDYSKYLDSKAAHDFVEWLLSA
modifications: Aib at position 2; K(Dodecanoyl-γ-Glu) at position 17; C-terminal amide (NH2)
B9: Compound 13 (peptide)
peptide: H[Aib]QGTFTSDYSKYLDSK([γGlu-Palmitoyl])AAHDFVEWLLKA-NH2
modifications: lactam 24-28; N-terminus assumed
SMILES: CCCCCCCCCCCCCCCC(=O)N[C@@H](CCC(=O)NCCCC[C@H](NC(=O)[C@H](CO)NC(=O)[C@H](CC(=O)O)NC(=O)[C@H](CC(C)C)NC(=O)[C@H](Cc1ccc(O)cc1)NC(=O)[C@H](CCCCN)NC(=O)[C@H](CO)NC(=O)[C@H](Cc1ccc(O)cc1)NC(=O)[C@H](CC(=O)O)NC(=O)[C@H](CO)NC(=O)[C@@H](NC(=O)[C@H](Cc1ccccc1)NC(=O)[C@@H](NC(=O)CNC(=O)[C@H](CCC(N)=O)NC(=O)C(C)(C)NC(=O)[C@@H](N)Cc1c[nH]cn1)[C@@H](C)O)[C@@H](C)O)C(=O)N[C@@H](C)C(=O)N[C@@H](C)C(=O)N[C@@H](Cc1c[nH]cn1)C(=O)N[C@@H](CC(=O)O)C(=O)N[C@@H](Cc1ccccc1)C(=O)N[C@H](C(=O)N[C@H]1CCC(=O)NCCCC[C@@H](C(=O)N[C@@H](C)C(N)=O)NC(=O)[C@H](CC(C)C)NC(=O)[C@H](CC(C)C)NC(=O)[C@H](Cc2c[nH]c3ccccc23)NC1=O)C(C)C)C(=O)O

Sequence of human glucagon-like peptide 1 receptor (GLP-1R) (P43220 24-463): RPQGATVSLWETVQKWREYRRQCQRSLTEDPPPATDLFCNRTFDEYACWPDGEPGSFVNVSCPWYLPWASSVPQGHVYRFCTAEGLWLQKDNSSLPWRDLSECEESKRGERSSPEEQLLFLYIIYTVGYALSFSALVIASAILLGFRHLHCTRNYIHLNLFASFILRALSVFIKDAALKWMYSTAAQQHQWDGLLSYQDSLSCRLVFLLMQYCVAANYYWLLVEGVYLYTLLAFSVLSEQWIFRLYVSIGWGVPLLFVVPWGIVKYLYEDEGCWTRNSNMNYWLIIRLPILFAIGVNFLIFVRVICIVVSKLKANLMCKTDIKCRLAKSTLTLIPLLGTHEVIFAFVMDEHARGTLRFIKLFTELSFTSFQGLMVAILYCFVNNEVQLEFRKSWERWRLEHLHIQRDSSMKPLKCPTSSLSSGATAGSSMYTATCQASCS

The first assay addresses human glucagon-like peptide 1 receptor (GLP-1R) (human, UniProt P43220 24-463). Briefly: cell-based or functional assay.
Take B1: the “EC50 (nM) GLP-1R, cAMP formation” value stood at 0.23 nM.
On to B2, for which the “EC50 (nM) GLP-1R, cAMP formation” value came out at 0.2 nM.
In the case of B3, the “EC50 (nM) GLP-1R, cAMP formation” value is 0.09 nM.
As to B4, the “EC50 (nM) GLP-1R, cAMP formation” value came to 0.24 nM.
On to B5, for which the “EC50 (nM) GLP-1R, cAMP formation” value was 0.11 nM.
With B6, the “EC50 (nM) GLP-1R, cAMP formation” value was 0.27 nM.
For the molecule B7, the “EC50 (nM) GLP-1R, cAMP formation” value was determined as 0.1 nM.
As to B8, the “EC50 (nM) GLP-1R, cAMP formation” value came out at 0.14 nM.
Consider B9, for which the “EC50 (nM) GLP-1R, cAMP formation” value stood at 0.08 nM.

The target in another assay is human glucagon receptor (Glucagon-R) (human, UniProt P47871 26-477). In words: cell-based or functional assay.
Turning to B1, the “EC50 (nM) GluR, cAMP formation” value was determined as 1.87 nM.
In the case of B2, the “EC50 (nM) GluR, cAMP formation” value was found to be 0.13 nM.
On to B3, for which the “EC50 (nM) GluR, cAMP formation” value was determined as 0.39 nM.
Take B4: the “EC50 (nM) GluR, cAMP formation” value turned out to be 0.46 nM.
Regarding B5, the “EC50 (nM) GluR, cAMP formation” value amounted to 0.12 nM.
For the molecule B6, the “EC50 (nM) GluR, cAMP formation” value was found to be 0.27 nM.
B7: the “EC50 (nM) GluR, cAMP formation” value came to 0.04 nM.
As to B8, the “EC50 (nM) GluR, cAMP formation” value was 0.78 nM.
Still for that read-out and setting: the same measure for B9: 0.26 nM.
